Assay results from PMC6954422.

Assays:
[1] = target: stammer-less MITF(Δ) protein fragment 217–296 (Mus musculus); test: SEC
[2] = target: MITF(wt) protein fragment 217–296 (Mus musculus); test: SEC

stoichiometry N [1] | stoichiometry N [2] | Substance
2 |  | stammer-less MITF(Δ) protein fragment 217–296 (domain or fragment)
 | 2 | MITF(wt) protein fragment 217–296 (domain or fragment)
